Experimental data published in patent publication US20260116958A1 (University of California, published 2026).

Key:
[1] = target: T1, inactive BoNT/G (BoNT/Gi) (Clostridium botulinum, UniProt Q60393 1-1297); test: titration on yeast-displayed scFv, flow cytometry, fit y = m1 + m2*M0/(m0+m3)
T1 sequence: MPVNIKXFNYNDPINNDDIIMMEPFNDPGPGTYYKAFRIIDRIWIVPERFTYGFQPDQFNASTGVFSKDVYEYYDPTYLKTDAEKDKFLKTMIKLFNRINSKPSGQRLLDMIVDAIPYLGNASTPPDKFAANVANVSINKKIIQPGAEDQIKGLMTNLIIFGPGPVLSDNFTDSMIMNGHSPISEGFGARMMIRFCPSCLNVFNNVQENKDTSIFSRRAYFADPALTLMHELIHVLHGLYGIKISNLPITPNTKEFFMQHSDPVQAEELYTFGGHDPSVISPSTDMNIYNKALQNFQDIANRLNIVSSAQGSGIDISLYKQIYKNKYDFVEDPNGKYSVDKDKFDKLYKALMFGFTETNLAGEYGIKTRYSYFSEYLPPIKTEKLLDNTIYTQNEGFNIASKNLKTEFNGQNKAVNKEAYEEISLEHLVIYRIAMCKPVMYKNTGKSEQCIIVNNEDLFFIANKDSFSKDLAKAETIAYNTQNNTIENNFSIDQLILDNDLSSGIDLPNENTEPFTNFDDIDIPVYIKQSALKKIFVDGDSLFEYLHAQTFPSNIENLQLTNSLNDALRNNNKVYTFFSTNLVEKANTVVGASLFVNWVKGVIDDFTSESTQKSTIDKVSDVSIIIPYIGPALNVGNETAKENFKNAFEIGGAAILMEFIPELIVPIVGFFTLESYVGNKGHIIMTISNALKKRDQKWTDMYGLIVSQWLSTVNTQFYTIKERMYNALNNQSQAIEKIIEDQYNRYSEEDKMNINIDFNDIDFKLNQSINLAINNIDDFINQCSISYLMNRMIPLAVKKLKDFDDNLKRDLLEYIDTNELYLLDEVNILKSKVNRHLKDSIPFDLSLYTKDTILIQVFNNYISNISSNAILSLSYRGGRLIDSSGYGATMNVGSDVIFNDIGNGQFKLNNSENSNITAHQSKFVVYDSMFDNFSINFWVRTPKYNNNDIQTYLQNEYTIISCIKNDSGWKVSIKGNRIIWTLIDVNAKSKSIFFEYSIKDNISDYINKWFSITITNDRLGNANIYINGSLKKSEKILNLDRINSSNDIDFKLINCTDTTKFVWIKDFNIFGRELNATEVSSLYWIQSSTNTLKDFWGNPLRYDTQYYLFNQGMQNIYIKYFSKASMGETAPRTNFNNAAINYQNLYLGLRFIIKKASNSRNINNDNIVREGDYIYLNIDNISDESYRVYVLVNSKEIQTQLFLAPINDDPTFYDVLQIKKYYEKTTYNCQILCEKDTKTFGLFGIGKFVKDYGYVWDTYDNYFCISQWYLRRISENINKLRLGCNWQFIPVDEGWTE

[2] = target: T1, inactive BoNT/G (BoNT/Gi); test: FACS, scFv on yeast
[3] = target: T1, inactive BoNT/G (BoNT/Gi); test: scFv on yeast
[4] = target: T1, inactive BoNT/G (BoNT/Gi); test: titration on yeast-displayed scFv, flow cytometry, fit y = m1 + m2*M0/(m0+m3); remark: listed apart in the source
[5] = target: inactive BoNT/G (BoNT/Gi) (Clostridium botulinum) (UniProt Q60393); test: scFv on yeast surface
[6] = target: inactive BoNT/G (BoNT/Gi) (Clostridium botulinum) (UniProt Q60393); test: flow cytometry, scFv on yeast
[7] = target: inactive BoNT/G (BoNT/Gi) (Clostridium botulinum) (UniProt Q60393); test: flow cytometry, scFv on yeast; against hu6G6 Wt
[8] = target: inactive BoNT/G (BoNT/Gi) (Clostridium botulinum) (UniProt Q60393); test: FACS, scFv on yeast
[9] = target: inactive BoNT/G (BoNT/Gi) (Clostridium botulinum) (UniProt Q60393); test: scFv on yeast
[10] = target: T1, inactive BoNT/G (BoNT/Gi); test: scFv on yeast surface
[11] = target: inactive BoNT/G (BoNT/Gi) (Clostridium botulinum) (UniProt Q60393); test: flow cytometry, scFv on yeast; remark: listed apart in the source
[12] = target: inactive BoNT/G (BoNT/Gi) (Clostridium botulinum) (UniProt Q60393); test: flow cytometry, scFv on yeast surface
[13] = target: T1, inactive BoNT/G (BoNT/Gi); test: flow cytometry, scFv on yeast
[14] = target: T1, inactive BoNT/G (BoNT/Gi); test: titration on yeast-displayed scFv, flow cytometry, fit y = m1 + m2*M0/(m0+m3); remark: listed apart in the source
[15] = target: T1, inactive BoNT/G (BoNT/Gi); test: as above; remark: listed apart in the source

B1: 6G10 scFv (scFv, V domains shown)
VH: EVQLQQSGPELVKPGASVKISCKASGYSFTGYFMHWVKQSHVKSLEWIGRINPYNGDIIYNQNFKDKASLTVDKSSSTAYMELHSLTSEDSAVYYCASLFGLYYFDYWGQGTTLTVSS
VL: EIVLTQSPAIMSASPGEKVTMTCSASSSVSYMHWYQQKSGTSPKRWIYDTSKLASGVPARFSGSGSGTSYSLTISSMEAEDAATYYCQQWSSNPLTFGAGTKLELKR
Kd [1]: 2.48 nM | Kd [2]: 2.48 nM

B2: hu6G11 scFv (scFv, V domains shown)
VH: QVQLVQSGAEVAKPGASVKMSCKASGYTFTSYWMHWVRQAPGQGLEWIGYINPSTGYTEYNQKFKDRATLTADKSTSTAYMELSSLRSEDTAVYYCARGYFSFAYWGQGTLVTVSS
VL: DIVMTQSPSSLSASVRDRVTITCQASHDIKNFLNWFQQKPGKAPKLLVYDASNLQVGVPSRFSASGYGTEFTLTISSLQPEDFATYYCQQANSFPRTFGQGTKVEIKR
Kd [3]: 4.57 nM | fold improvement in BoNT/Gi binding [3]: 25 fold | Kd [2]: 4.5 nM

B3: 6G9 scFv (scFv, V domains shown)
VH: EVQLQQSGDDLVKPGASVKMSCKASGYTFTSYWMHWVKQRPGQGLEWIGYINPSTGYTEYNQKFKDKATLTADKSSSTAYMQLSSLTSEDSAVYYCARGGNYVDYWGQGTTLTVSS
VL: EIVLTQSPAIMSASPGEKVTISCSASSSVSYMYWYQQKPGSSPKPWIYRTSNLASGVPARFSGSGSGTSYSLTISSMEAEDAATYYCQQWSSNPYTFGGGTKLEIKR
Kd [2]: 18.8 nM | Kd [4]: 5.6 nM

B4: hu6G6.1 scFv (scFv)
scFv: QVQLVQSGAEVKKPGASVKLSCKASGFNIKDTYMHWVRQAPGQGLEWIGRIDPENGNTKYDPKFQGRATITAYKSINTAYLELSRLRSDDTAVYYCASGPNYYGTTWFAYWGQGTTVTVSSVDLKSGGSTSGSGKPGSGEGSSGSAREIVLTQSPSTLSASVGDRVTITCRASHGISNYLAWYQQKPGRAPKLLIYKASTLHIGVPSRFSGSGSGTEFALTISSLQPDDFSTYYCQQYNSYLPHTFGQGTRLEIK
Kd [5]: 1.15 nM | Kd [6]: 4.27 nM | Improvement over WT [7]: 5.5 fold | Kd [8]: 3.4 nM

B5: Hu6G6.2 scFv (scFv)
scFv: QVQLVQSGAEVKKPGASVKLSCKASGFNIKDTYMHWVRQAPGQGLEWIGRIDPENGNTKYDPKFQGRATITAYKSINRAYLELSRLRSDDTAVYYCASGPNYYGTTWFAYWGQGTTVTVSSVDLKSGGSTSGSGKPGSGEGSSGSAREIVLTQSPSTLSASVGDRVTITCRASHGISNYLAWYQQKPGRAPKLLIYKASTLHIGVPSRFSGSGSGTEFALTISSLQPDDFSTYYCQQYNSYLPHTFGQGTRLEIK
Kd [8]: 0.22 nM | Kd [9]: 0.22 nM

B6: 6G6 scFv (scFv, V domains shown)
VH: EVQLQQSGAELVKPGASVKLSCTASGFNIKDTYMHWVKQRPEQGLEWIGRIDPANGNTKYDPKFQGKATITADTSSNTAYLQLSSLTSEDTAVYYCASGPNYYGTTWFAYWGQGTTVTVSS
VL: QIVLTQSPAILSASPGEKVTMTCRASSSVSYMHWYQQKPGSSPRLWIYRTSNLASGVPARFSGSGSGTSYSLTISSMEAEDAATYYCQQYHSYPRTFGGGTKLEIKR
Kd [10]: 17.7 nM

B7: hu6G9 scFv (scFv)
scFv: QVQLVQSGAEVKKPGASVKMSCKASGYTFTSYWMHWVRQAPGQGLEWIGYINPSTGYTEYNQKFKDRATLTADKSTSTAYMELRSLRSDDTAVYYCARGGNYVDYWGQGTTLTVSSVDLKSGGSTSGSGKPGSGEGSSGSARDIQMTQSPSTLSASVGERVTITCRASQGISSWLAWYQQKPGKAPKRLIYAVSTLQTGVPSRFSGSGSGTDLTLTINSLQPEDFATYYCQHLNSYPLTFGGGTKVEIK
Kd [11]: 3.78 nM | Kd [6]: 18.8 nM | Kd [12]: 18.8 nM

B8: 6G7.1 scFv (scFv, V domains shown)
VH: DVQLQESGPELVKPGASVKVSCKASDYSFTDYNIYWVKQSHGKSLEWIGYIDPYNGGTSYNQKFKGKATLTVDKSSSTAFMYLNSLTSEDSAVYYCALYGYDPDYIDYWGQGTTLTVSS
VL: QIVLTQSPAIMSASPGEKVTITCSASSSVSYLHWFQQKPGTSPKLWIYSTSNLASGVPARFSGSGSGTSYSLTISRMEAEDAATYYCQQRSSYPYTFGGGTKLEIKA
Kd [10]: 0.69 nM | Kd [13]: 2.1 nM | Kd [14]: 0.27 nM | Kd [2]: 0.27 nM | Kd [15]: 1.29 nM
